Laboratory results reported in US20070184522A1, “Cell death modulation via antagonists of Fasl and Fas activation” (University of Pittsburgh of the Commonwealth System of …, priority 2004, published 2007).

B1: alpha subunit of Met (AlphaMet), amino acid residues 1 to 306, His-tagged (receptor, mouse)
chain: MKAPTVLAPGILVLLLSLVQRSHGECKEALVKSEMNVNMKYQLPNFTAETPIQNVVLHGHHIYLGATNYIYVLNDKDLQKVSEFKTGPVLEHPDCLPCRDCSSKANSSGGVWKDNINMALLVDTYYDDQLISCGSVNRGTCQRHVLPPDNSADIQSEVHCMFSPEEESGQCPDCVVSALGAKVLLSEKDRFINFFVGNTINSSYPPGYSLHSISVRRLKETQDGFKFLTDQSYIDVLPEFLDSYPIKYIHAFESNHFIYFLTVQKETLDAQTFHTRIIRFCSVDSGLHSYMEMPLECILTEKRRKRHHHHHH

Columns and labels:
[1] = test system: liver (hepatocyte apoptosis); assay: Jo2 (Fas agonist) induced liver apoptosis in Balb/c mice; format: in vivo; details: for percentage of apoptotic cells by TUNEL staining: Balb/c mice liver, Jo2, AlphaMet 100 micrograms or YLGA polypeptides 300 micrograms per mouse; for enzymatic activity of caspase-3 in liver lysates: compared to Jo2 only group
Protocol: For FIG. 5a, Balb/c mice (10 per group) were injected with Jo2 (2.5 μg/g of mouse body weight) in the presence of AlphaMet or polypeptides as indicated, and analyzed for the extent of hepatocyte apoptosis and liver damage by immunohisological and biochemical techniques. The percentage of TUNEL positive was determined in multiple liver lobes of each liver in random fields counting at least 500 hepatocytes in a double-blind manner. Frame A: Normal mouse liver; Frame B: Jo2 treated mouse liver; Frame C: Jo2 plus AlphaMet treated mouse; Frame D: Jo2 plus YLGA 12 mer; Frame E: Jo2 and YLGA tetramer treatment; Frame F: Jo2 and YLGA mutated AlphaMet, respectively. These studies were repeated three times with identical outcome. FIG. 5b graphically presents the quantification of hepatocyte apoptosis TUNEL positive nuclei. The data were analyzed by One-way ANOVA and P<0.05 was considered significant. For FIG. 5c, an equal amount of livers were subjected to Caspase 3 activity assay using DEVD-AFC as a substrate and DEVD-CHO as an inhibitor, as recommended by the manufacturer. The data are the mean and SE and were repeated in three independent experiments. The data were analyzed by One-way ANOVA and P<0.05 was considered significant.
Animal studies. Male Balb/c mice weighing 30 grams were purchased from Jackson Laboratory and used according to an IACUC approved protocol. Induction of liver apoptosis and determination of Caspase 3 activity and histological evaluation were performed as described previously (Wang et al., 2002). Animals (10 per group) were anesthetized by isoflurane and injected with Jo2 (Pharmingen 2.5 microgram/gram body weight) with or without AlphaMet (100 micrograms recombinant AlphaMet or 300 micrograms of synthetic YLGA polypeptides) in a total of 100 micro liters of saline per mouse. Control groups (N=10 per group) consisted of saline only, Jo2 only, and Jo2 plus mutated AlphaMet or scrambled polypeptide. During the experiment which lasted approximately 6 hours, animals were closely monitored every 10 to 15 minutes and if they appeared to be moribund were immediately sacrificed and liver tissue and was removed for biochemical and histological studies.
It is well known in the literature that the liver is one of the most sensitive organs to Fas mediated apoptosis. Injection of the Fas agonist Jo2 antibody, which causes mice to experience Fas aggregation resulting in massive hepatocyte apoptosis, fulminant hepatic failure, and death within hours. This model was used to test if AlphaMet and the YLGA polypeptides could protect livers from Fas-induced apoptosis. Given the fact that AlphaMet blocked Fas trimerization and Fas micro-aggregation, and the fact that Fas oligomerization is essential in Fas signaling, it was reasonable to suspect that AlphaMet could block the Fas mediated apoptosis in vivo. Balb/c mice were used in these experiments. Groups of animals (n=10) were injected systemically with Jo2 ([…] of body weight) with or without purified recombinant AlphaMet, synthetic 12 mer YLGA polypeptide (HHIYLGATNYIY, SEQ ID NO:26), or their control counterparts (N-terminally truncated AlphaMet, YLGA mutated recombinant AlphaMet or scrambled 12 mer polypeptide) as described in the materials and methods. Mice were sacrificed within 6 hours or sooner if they were moribund and their livers were subjected to biochemical determination of Caspase-3 activity and histological analyses (i.e. TUNEL staining).

Hepa 1-6 cells = assay: Fas-induced apoptosis in Hepa 1-6 cells (LDH activity assay); format: cell-based, mouse; details: for FasL induced apoptosis: serum deprived Hepa 1-6 cells, crosslinked mouse Fas ligand 1 μg/ml overnight, LDH
Protocol: For FIG. 4a, Jurkat cells (1.5×10^5) were overnight treated in triplicate with 5 ng/ml of crosslinked human Fas ligand with or without 5 μg/ml of recombinant AlphaMet or 1 μg/ml of the indicated polypeptides. Percent apoptosis was determined by Trypan Blue staining using a hemocytometer. The data are representative and were repeated at least four times. […] The 17 kDa fragment of cleaved Caspase 3 is visualized by this antibody. The blot was reprobed for β-actin as a loading control. For FIG. 4c, serum deprived Hepa 1-6 cells (3×10^5) were overnight treated with 1 μg/ml of crosslinked mouse Fas ligand with or without AlphaMet or the indicated polypeptide. Media were collected and centrifuged to pellet the dead cells. […] The data in FIG. 4c represents three independent experiments.
Apoptosis assay. Pre-washed Jurkat cells in RPMI 1640 medium containing 1% FBS were inoculated in 96-wells at a density of 10^5 cells per well. Apoptosis was induced by cross-linked human Fas-ligand (R&D Systems) at a concentration of 0.5 ng/ml or Anti-Fas (human, activating) clone CH11 (Upstate biotechnology) at a concentration of 500 ng /ml. Hepa 1-6 cells were overnight starved before induction of apoptosis. The apoptosis in Hepa 1-6 was induced by anti-mouse Fas antibody Jo2 (200 ng/ml) or human recombinant Fas-ligand. The extent of cell viability and apoptosis was determined by several methods such as Trypan Blue stain, flow cytometry, LDH assay, and Hoechst staining.

| Molecule | percentage of apoptotic cells by TUNEL staining [1] | enzymatic activity of caspase-3 in liver lysates ([1]; Balb/c mice) | FasL induced apoptosis (Hepa 1-6 cells) | liver hemorrhage (gross and microscopic) ([1]; Balb/c mice, Jo2 injection, within 6 hours) | apoptosis induced by the Fas agonist Jo2 (Hepa 1-6 cells; Hepa 1-6 cells) | resistance to Fas killing of stable cell lines expressing the protein (Hepa 1-6 cells; Hepa 1-6 stable lines versus control vector clones) |
| --- | --- | --- | --- | --- | --- | --- |
| HHIYLGATNYIY [12 mer] | 25% | significant reduction | significantly inhibited FasL induced apoptosis |  |  |  |
| YLGA [YLGA 4 mer] | 40% |  | significantly inhibited FasL induced apoptosis |  |  |  |
| B1 | 18% | significant reduction | significantly inhibited FasL induced apoptosis | little or no sign of hemorrhage | efficiently inhibited | dramatic resistance to Fas killing |
